Test results reported in patent publication US20240158515A1 (Regeneron, published 2024).

B1: H4H30061P (antibody, human IgG4 S228P, kappa, V domains shown)
VH: EVQLVESGGGLAQPGGSLKLSCEASGFTFSDSAMHWVRQASGKGLEWVGRIRSKANSYATGYAASVKGRFTISRDDSKNMAFLEMNSLKTEDTAVYYCLRQTYGDPWGQGTLVTVSS
VL: DVVMTQSPLSLSVTLGQPASISCRSSLSLVYSDGNNYLNWFQQRPGQSPRRLLYKVFNRDSGVPDRFSGSGSGTDFTLKISRVEAEDVGVYYCMQGTHWPWTFGQGTKVEIKR
B2: H4H30102P2 (antibody, human IgG4 S228P, kappa, V domains shown)
VH: EVQLVESGGDLVQPGGSLRLSCAASGFTFSSYEMNWVRQAPGKGLEWVSYISNSGSTIYYADSVKGRFTISRDNAETSLYLQMNSLRAEDTAVYYCAREGWGAYCAGDCYSGFDIWGQGTMVTVSS
VL: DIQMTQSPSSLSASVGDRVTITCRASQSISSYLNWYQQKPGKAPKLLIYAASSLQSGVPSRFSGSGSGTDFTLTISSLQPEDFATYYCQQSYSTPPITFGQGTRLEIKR
B3: H4H30071P (antibody, human IgG4 S228P, kappa, V domains shown)
VH: QVQLQQSGPGLVKPSQTLSLTCAISGDSVSRNSAAWNWIRQSPSSGLEWLGRTYYRSKWFYDYAISVKSRITVNPDTSKNQFSLHLNSVTPEDTAVYYCARGYGGYEDYFDYWGQGTLVTVSS
VL: DIQMTQSPSSVSASVGDRVTITCRASQGISSWLAWYQQKPGKAPKLLIYGASSLQSGVPSRFSGSGSGTDFTLTISSLQPEDFATYFCQQGSSFPYTFGQGTKLEIKR
notes: HCVR 42, LCVR 50

Columns and labels:
[1] = target: T1, murine FGFR3b expressed with a C-terminal myc-myc-hexahistidine tag (mFGFR3b.mmH) (murine); assay: SPR Biacore, mAb captured on anti-hFc, 25C; row marked NB
T1 construct: also called REGN3215; monomeric murine FGFR3b
T1 chain: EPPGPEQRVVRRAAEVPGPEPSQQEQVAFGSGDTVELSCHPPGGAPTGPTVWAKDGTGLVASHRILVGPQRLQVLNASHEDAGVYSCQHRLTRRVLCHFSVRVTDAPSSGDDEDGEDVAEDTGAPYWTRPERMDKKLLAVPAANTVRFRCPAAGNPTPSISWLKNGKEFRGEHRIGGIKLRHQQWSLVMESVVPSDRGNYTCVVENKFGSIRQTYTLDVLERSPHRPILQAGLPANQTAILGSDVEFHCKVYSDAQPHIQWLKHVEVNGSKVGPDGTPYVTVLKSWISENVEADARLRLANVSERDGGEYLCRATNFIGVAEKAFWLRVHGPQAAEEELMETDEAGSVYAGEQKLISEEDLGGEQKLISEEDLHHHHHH
Description: (§1) The CM5 Biacore sensor surface was derivatized by amine coupling with a monoclonal mouse anti-human Fc monoclonal antibody (REGN2567). […] Antibody-reagent association was monitored for 5 minutes while dissociation in HBS-EP running buffer was monitored for 10 minutes. At the end of each cycle, the anti-FGFR3 antibody capture surface was regenerated using a 10 sec injection of 20 mM phosphoric acid. All binding kinetics experiments were performed at 25° C.
(§2) The specific SPR-Biacore sensorgrams were obtained by a double referencing procedure. The double referencing was performed by first subtracting the signal of each injection over a reference surface (anti-hFc) from the signal over the experimental surface (anti-hFc-captured anti-FGFR3 antibodies) thereby removing contributions from refractive index changes. In addition, running buffer injections were performed to allow subtraction of the signal changes resulting from the dissociation of captured antibodies from the coupled anti-hFc surface. Kinetic association (kₐ) and dissociation (kd) rate constants were determined by fitting the real-time sensorgrams to a 1:1 binding model using Scrubber v2.0c curve fitting software.

[2] = target: T2, human FGFR3c expressed with a C-terminal myc-myc-hexahistidine tag (hFGFR3c.mmH) (human, UniProt P22607 23-375); assay: SPR Biacore, mAb captured on anti-hFc, 25C
T2 construct: also called REGN3155; monomeric human FGFR3c
Description: as §1, §2

[3] = target: T3, human FGFR3b expressed with a C-terminal myc-myc-hexahistidine tag (hFGFR3b.mmH) (human); assay: SPR Biacore, mAb captured on anti-hFc, 25C
T3 construct: also called REGN3152; monomeric human FGFR3b
T3 chain: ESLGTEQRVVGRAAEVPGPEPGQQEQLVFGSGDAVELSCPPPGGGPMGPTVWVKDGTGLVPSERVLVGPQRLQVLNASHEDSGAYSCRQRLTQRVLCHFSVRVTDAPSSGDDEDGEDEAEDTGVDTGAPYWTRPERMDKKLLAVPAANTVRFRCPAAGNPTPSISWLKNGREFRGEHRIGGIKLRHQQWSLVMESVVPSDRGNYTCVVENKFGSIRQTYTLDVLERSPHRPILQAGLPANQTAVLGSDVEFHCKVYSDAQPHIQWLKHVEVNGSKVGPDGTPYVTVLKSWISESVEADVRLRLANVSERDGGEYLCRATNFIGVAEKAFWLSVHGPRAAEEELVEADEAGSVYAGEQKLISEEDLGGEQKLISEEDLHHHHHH
Description: as §1, §2

[4] = target: T4, cynomolgus FGFR3b expressed with a C-terminal myc-myc-hexahistidine tag (mfFGFR3b.mmH) (cynomolgus); assay: SPR Biacore, mAb captured on anti-hFc, 25C
T4 construct: also called REGN3521; mf FGFR3b ecto (R357G)(E23-G377;R357G).mmH
T4 chain: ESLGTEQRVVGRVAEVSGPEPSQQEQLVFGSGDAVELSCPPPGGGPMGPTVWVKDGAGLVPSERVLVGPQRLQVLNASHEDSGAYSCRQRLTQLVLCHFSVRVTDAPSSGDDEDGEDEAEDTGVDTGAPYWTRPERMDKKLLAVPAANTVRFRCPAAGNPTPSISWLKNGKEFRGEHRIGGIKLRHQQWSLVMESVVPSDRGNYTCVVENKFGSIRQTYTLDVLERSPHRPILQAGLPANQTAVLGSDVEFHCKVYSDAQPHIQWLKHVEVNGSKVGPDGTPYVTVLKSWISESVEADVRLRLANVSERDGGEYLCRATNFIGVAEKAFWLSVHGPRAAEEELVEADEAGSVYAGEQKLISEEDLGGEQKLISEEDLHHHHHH
Description: as §1, §2

[5] = target: T5, human FGFR3b expressed with a C-terminal murine Fc tag (hFGFR3b.mFc) (human); assay: SPR Biacore, mAb captured on anti-hFc, 25C
T5 construct: called dimeric; also called REGN3153; dimeric human FGFR3b
T5 chain: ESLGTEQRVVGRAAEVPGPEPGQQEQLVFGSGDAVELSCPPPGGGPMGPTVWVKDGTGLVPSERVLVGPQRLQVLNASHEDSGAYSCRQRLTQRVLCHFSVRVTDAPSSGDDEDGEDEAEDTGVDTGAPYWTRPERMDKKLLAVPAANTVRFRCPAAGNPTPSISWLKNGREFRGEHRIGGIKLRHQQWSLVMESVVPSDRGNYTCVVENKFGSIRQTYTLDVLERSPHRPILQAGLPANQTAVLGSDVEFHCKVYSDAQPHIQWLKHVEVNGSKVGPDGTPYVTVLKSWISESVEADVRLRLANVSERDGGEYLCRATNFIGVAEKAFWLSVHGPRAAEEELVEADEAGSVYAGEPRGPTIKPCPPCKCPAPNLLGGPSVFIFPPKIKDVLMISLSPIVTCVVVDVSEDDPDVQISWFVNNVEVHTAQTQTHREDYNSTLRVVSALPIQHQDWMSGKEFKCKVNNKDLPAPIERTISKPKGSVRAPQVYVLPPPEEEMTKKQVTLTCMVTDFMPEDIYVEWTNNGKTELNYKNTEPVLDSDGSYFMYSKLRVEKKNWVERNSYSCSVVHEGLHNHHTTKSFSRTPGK
Description: as §1, §2

[6] = target: full length human FGFR3b S249C on BaF3 cells (BAF3/FGFR3b_S249C, ACL11986) (human, UniProt P22607 23-808); assay: cell-based or functional assay
[7] = target: full length human FGFR3b on BaF3 cells (BAF3/FGFR3b, ACL11991) (human, UniProt P22607 23-808); assay: cell-based or functional assay
[8] = target: T2, human FGFR3c expressed with a …; assay: SPR Biacore, mAb captured on anti-hFc, 25C; row marked NB
Description: as §1, §2

[9] = target: T5, human FGFR3b expressed with a …; assay: competition ELISA: 4 nM hFGFR3b-mFc binding to plate-coated hFGF acidic
Description: The fixed concentration of hFGFR3b or hFGFR3c proteins was selected to be near the concentration that generated 50% of the maximal binding (EC₅₀ value) to plate-adhered hFGF acidic or hFGF basic protein. […] The plates were then developed using TMB substrate solution (BD Biosciences) according to the manufacturer's recommended procedure and absorbance at 450 nm was measured on a Victor X5 plate reader.
Binding data were analyzed using a sigmoidal (four-parameter logistic) dose-response model using GraphPad Prism software. […] Percent blocking of FGFR3 antibody at a given concentration was calculated based on the formula shown below.
The ability of anti-FGFR3 antibodies to block human FGFR3b binding to hFGF acidic protein or hFGFR3c binding to hFGF acidic or hFGF basic proteins was evaluated using a sandwich ELISA-based blocking assay.

[10] = target: T1, murine FGFR3b expressed with a …; assay: SPR Biacore, mAb captured on anti-hFc, 25C
Description: as §1, §2

Binder | 90 nM hFGFR3b.mmH Bind (RU) [3] [RU] | Kd [3] [nM] | koff [3] [s⁻¹] | kon [3] [M⁻¹ s⁻¹] | t½ [3] [h] | 90 nM mfFGFR3b.mmH Bind (RU) [4] [RU] | Kd [4] [nM] | koff [4] [s⁻¹] | kon [4] [M⁻¹ s⁻¹] | t½ [4] [h] | 30 nM hFGFR3b.mFc Bind (RU) [5] [RU] | Kd [5] [nM] | koff [5] [s⁻¹] | kon [5] [M⁻¹ s⁻¹] | t½ [5] [h] | other results
B1 | 249 | 0.506 | 8.74e-05 | 173000 | 2.2 | 197 | 0.65 | 9.83e-05 | 151000 | 1.96 | 260 | ≤ 0.0433 | ≤ 1e-05 | 231000 | ≥ 19.2 | 90 nM mFGFR3b.mmH Bind (RU) [1]: -8.5 RU; 90 nM hFGFR3c.mmH Bind (RU) [2]: 204 RU; Kd [2]: 0.526 nM; koff [2]: 7.92e-05 s⁻¹; kon [2]: 151000 M⁻¹ s⁻¹; t½ [2]: 2.43 h
B2 |  |  |  |  |  | 126 | 1.75 | 0.00023 | 131000 | 0.837 |  |  |  |  |  | Max Blocking (%), BaF3 proliferation (CellTiter-Glo) with 1 nM FGF1 + 5 ug/ml heparin [6]: 34.5%; IC50 [M], BaF3 proliferation (CellTiter-Glo) with 1 nM FGF1 + 5 ug/ml heparin [7]: 1.86e-08 M; Max Blocking (%), BaF3 proliferation (CellTiter-Glo) with 1 nM FGF1 + 5 ug/ml heparin [7]: 41.1%
B3 | 253 | 0.137 | 2.96e-05 | 216000 | 6.51 | 233 | 0.123 | 2.22e-05 | 180000 | 8.67 | 236 | ≤ 0.031 | ≤ 1e-05 | 322000 | ≥ 19.2 | 90 nM hFGFR3c.mmH Bind (RU) [8]: -4.8 RU; % Blocking at 200 nM mAb [9]: 88%; IC50 [9]: 3.6 nM; 90 nM mFGFR3b.mmH Bind (RU) [10]: 174 RU; Kd [10]: 7.65 nM; koff [10]: 0.00169 s⁻¹; kon [10]: 220000 M⁻¹ s⁻¹; t½ [10]: 6.9 min
